# Assay results published in patent US20240117011A1.
# Target: full-length SARS-CoV-2 spike, WA-1 / Wuhan-1 (S wt) (SARS-CoV-2) (UniProt P0DTC2)
# Experiment: cell-based or functional assay
substance,measurement,value
LY-CoV555 (antibody),pseudotyped virus neutralization IC50,0.0071 µg/mL
same,pseudotyped virus neutralization IC80,0.0357 µg/mL
